Substrate in series [1]: CCn1c(=NN=c2sc3cc(S(=O)(=O)O)ccc3n2CC)sc2cc(S(=O)(=O)O)ccc21
The series can be described thus: purified protein, by the assay type. Conditions: other: ABTS 0 to 1.5 mM, 0.1 M citrate/phosphate buffer, pH 3.4, 37° C.

Substrate in series [2]: COc1cc(/C=N/N=C/c2cc(OC)c(O)c(OC)c2)cc(OC)c1O
Kind of series: Enzymatic test, oxidation of syringaldazine (SGZ) (stationary-phase kinetics). The following applies: other: SGZ 0 to 50 μM (diluted in methanol), citrate-phosphate 50 mM buffer, pH 7, 37° C., 530 nm. In kind it is biochemical, Podospora anserina. On the procedure:
The enzymatic tests are carried out using a Varian spectrophotometer in a 0.1 M citrate/phosphate buffer at 37° C. in a volume of 3 ml by monitoring the oxidation of various substrates at a given wavelength as a function of time. The specific activity of the enzyme is expressed in μmol of substrates oxidized per minute and per mg of protein.
The experiments are carried out at 37° C. on a Varian spectrophotometer in a citrate-phosphate 50 mM buffer, pH 7. The concentration of SGZ, diluted in methanol, varies in the test from 0 to 50 μM. The test, initiated by the addition of enzyme, consists in monitoring the oxidation of the SGZ at 530 nm by colorimetric change (ε530nm=64 mM^−1 cm^−1).

Series [3] in a line: Enzymatic activity (SGZ oxidation) in the presence of NaCl. In kind it is biochemical. Conditions: 150 mM of NaCl, SGZ oxidation at 530 nm, 37° C., 50 mM phosphate-citrate buffer, pH 7. On the procedure: In order to verify the influence of sodium chloride (present in a physiological medium) on the activity of the laccase, increasing concentrations of NaCl were added to the activity test consisting in monitoring the oxidation, at 530 nm, of the SGZ at 37° C. in a 50 mM phosphate-citrate buffer, pH 7.

A short description of series [4]: Electrochemical measurements, enzymatic electrode with redox polymer, reduction of O2. The following applies: pH 7, in the presence of Cl. The source says:
At pH 7 and in the presence of Cl, the catalytic current for the reduction of O2 is 40% greater for the electrode modified with the novel enzyme. In addition, the stability over time is 200% greater.

B1: Podospora anserina laccase, SEQ ID No. 3 (Podospora anserina S mat+) (protein)
chain: SVARKDWESPTYSWLYQFPLPIPPVKTPKLTVTNLVTGNPIHYYEVYINRFTQQVYPNKGPATLVGYDGISPGPTFIVERGHEAVVRFVNNASIENSVHLHGSYSRAPWDGWAEDVTMPGEFKDYYYPNQQAARFLWYHDHAFMHTAENAYFGQAGAYIIHDPAEDALNLPSGYGVHDIPLVLSSKQYNNNGSLFTTNGETDSLFGDVIHVNGQPWPYFNVEPRKYRLRFLDAAVSRTFKLYFQRQTGSSAKIPFQVIATDAGLMASPATTNDLYISMGERYEVVFDFSPFAGQNITLRNTDDVGQDDDYLHTNKVMRFIVGNTPVTDTSSIPSTLATVDWPTSDGTGVDRHFKFDRSNGEWQINGVVFADVNNRVLANVPRGKVEIWELENGGGGWSHPIHIHLVDFKVLWRSNDDGRPVYNYEAQGLKDVVWLAPNEIVRVEAHYAPWDGVYMFHCHNLIHEDHDMMAAFNVTALTDLGYNETAFRDPMEARWRAEPVTAAKFTTAAITEKIQFMAGLQPYNNVEEVLEVLDEYWATHSKRDAQDPAPKTRRMRIEGGKVKEVR
notes: purified
A word on the Km: it is the substrate concentration at which the rate is half of its maximum. The term kcat denotes the number of substrate molecules converted per active site and unit of time at saturation. For the molecule B1, in series [1], the Michaelis constant (Km) was 307 µM and the kcat turned out to be 1372 s⁻¹. Moreover, in series [2], the Km was found to be 10.9 µM and the kcat stood at 1.3 s⁻¹.

B2: laccase of SEQ ID No. 3: Podospora anserina laccase of SEQ ID No. 1 with an additional N-terminal serine, expressed in Pichia pastoris from the pFD56 vector (protein, listed as Podospora anserina)
chain: SVARKDWESPTYSWLYQFPLPIPPVKTPKLTVTNLVTGNPIHYYEVYINRFTQQVYPNKGPATLVGYDGISPGPTFIVERGHEAVVRFVNNASIENSVHLHGSYSRAPWDGWAEDVTMPGEFKDYYYPNQQAARFLWYHDHAFMHTAENAYFGQAGAYIIHDPAEDALNLPSGYGVHDIPLVLSSKQYNNNGSLFTTNGETDSLFGDVIHVNGQPWPYFNVEPRKYRLRFLDAAVSRTFKLYFQRQTGSSAKIPFQVIATDAGLMASPATTNDLYISMGERYEVVFDFSPFAGQNITLRNTDDVGQDDDYLHTNKVMRFIVGNTPVTDTSSIPSTLATVDWPTSDGTGVDRHFKFDRSNGEWQINGVVFADVNNRVLANVPRGKVEIWELENGGGGWSHPIHIHLVDFKVLWRSNDDGRPVYNYEAQGLKDVVWLAPNEIVRVEAHYAPWDGVYMFHCHNLIHEDHDMMAAFNVTALTDLGYNETAFRDPMEARWRAEPVTAAKFTTAAITEKIQFMAGLQPYNNVEEVLEVLDEYWATHSKRDAQDPAPKTRRMRIEGGKVKEVR
B2: the “oxidation activity still exhibited in the presence of NaCl” value in series [3] was found to be 70%. In series [4], the “catalytic current for the reduction of O2, greater than electrode with laccase of Trametes versicolor” value came to 40% and the “stability over time, greater than electrode with laccase of Trametes versicolor” value worked out at 200%.

(Values after patent publication US20150203825A1, “Laccase of Podospora Anserina and Uses of Same” (priority 2012, published 2015).)
